Measurements published in patent US20100311648A1 (AstraZeneca / MedImmune, published 2010).
Positions of bridges follow the written chain, without caps; N, C: chain ends. Non-standard residues stand in square brackets, D forms with d. dPhe(2-CF3) = N[C@H](Cc1ccccc1C(F)(F)F)C(=O)O; dPhe(4-CN) = N#Cc1ccc(C[C@@H](N)C(=O)O)cc1; dPhe(2-Cl) = N[C@H](Cc1ccccc1Cl)C(=O)O; dPhe(2-Me) = Cc1ccccc1C[C@@H](N)C(=O)O; dPhe(4-F) = N[C@H](Cc1ccc(F)cc1)C(=O)O; dPhe(2-F) = N[C@H](Cc1ccccc1F)C(=O)O; Orn = NCCC[C@H](N)C(=O)O

Experiments:
[1] = biological target: T1, human melanocortin-4 receptor (human, UniProt P32245 1-332); experiment: cell-based or functional assay
T1 sequence (P32245 whole entry): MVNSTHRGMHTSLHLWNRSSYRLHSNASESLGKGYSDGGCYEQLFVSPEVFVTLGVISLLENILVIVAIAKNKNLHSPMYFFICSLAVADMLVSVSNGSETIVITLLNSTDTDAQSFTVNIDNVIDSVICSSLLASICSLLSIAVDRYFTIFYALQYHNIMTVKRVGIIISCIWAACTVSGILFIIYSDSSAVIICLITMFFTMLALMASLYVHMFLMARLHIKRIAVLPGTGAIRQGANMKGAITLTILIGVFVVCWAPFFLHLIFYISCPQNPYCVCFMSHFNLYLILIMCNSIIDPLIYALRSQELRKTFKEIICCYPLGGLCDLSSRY

[2] = biological target: T1, human melanocortin-4 receptor; experiment: [I125]-NDP-α-MSH competition, hMC4-R HEK-293 membranes
Description: (§1) A competitive inhibition binding assay was performed for exemplified peptides according to the invention using membrane homogenates prepared from HEK-293 cells that express recombinant hMC4-R, hMC3-R, or hMC5-R, and from B-16 mouse melanoma cells (containing endogenous MC1-R). In some instances, HEK-293 cells that express recombinant hMC1-R were employed. Assays were performed in 96 well GF/B Millipore multiscreen filtration plates (MAFB NOB10) pre-coated with 0.5% bovine serum albumin (Fraction V). […] After incubation for 60 minutes at 37° C., the assay mixture was filtered and the membranes washed three times with ice-cold buffer. Filters were dried and counted in a gamma counter for bound radioactivity. […] Each assay was conducted in triplicate and the actual mean values are described, with results less than 0% reported as 0%. Ki values for test peptides of the present invention were determined using Graph-Pad Prism® curve-fitting software.

melanocortin-1 receptor = biological target: T2, melanocortin-1 receptor (mouse (B-16 melanoma cells); in some …, UniProt Q01727 1-315); experiment: [I125]-NDP-α-MSH competition, MC1-R membranes
T2 construct: whole, on cells; membrane homogenates; also called MC1-R; mouse B16 MC1-R
T2 sequence (Q01727 whole entry): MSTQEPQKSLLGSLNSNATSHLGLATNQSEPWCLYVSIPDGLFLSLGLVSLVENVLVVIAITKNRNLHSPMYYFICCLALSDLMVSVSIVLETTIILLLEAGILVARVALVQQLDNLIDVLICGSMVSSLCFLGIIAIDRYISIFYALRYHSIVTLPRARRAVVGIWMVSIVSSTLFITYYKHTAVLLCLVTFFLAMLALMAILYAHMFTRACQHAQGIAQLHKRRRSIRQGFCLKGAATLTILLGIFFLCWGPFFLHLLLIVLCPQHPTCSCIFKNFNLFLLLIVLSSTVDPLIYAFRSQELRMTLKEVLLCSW
Description: as §1

Row | Binder | EC50, cAMP, 0.1 ng/mL Doxycycline [1] | EC50, cAMP, 10 ng/mL Doxycycline [1] | Intrinsic Activity, cAMP, 0.1 ng/mL Doxycycline [1] | Intrinsic Activity, cAMP, 10 ng/mL Doxycycline [1] | Ki [2] | Ki (melanocortin-1 receptor)
1 | Ac-REQ[dPhe(2-Cl)]RW[Orn]-NH2 (lactam 2-7, also called No. 34) [Ac-Arg-cyclo(Glu-Gln-D-Phe(2-Cl)-Arg-Trp-Orn)-NH2] | 1 nM | 0.137 nM | 79% | 97% | 7 nM | 128 nM
2 | Ac-REN[dPhe(2-Cl)]RW[Orn]-NH2 (lactam 2-7; SMILES CC(=O)N[C@@H](CCCNC(=N)N)C(=O)N[C@H]1CCC(=O)NCCC[C@@H](C(N)=O)NC(=O)[C@H](Cc2c[nH]c3ccccc23)NC(=O)[C@H](CCCNC(=N)N)NC(=O)[C@@H](Cc2ccccc2Cl)NC(=O)[C@H](CC(N)=O)NC1=O, also called No. 84) [Ac-Arg-cyclo(Glu-Asn-D-Phe(2-Cl)-Arg-Trp-Orn)-NH2] | 0.633 nM | 0.09 nM | 78% | 97% | 7 nM | 245 nM
3 | Ac-RES[dPhe(2-Cl)]RW[Orn]-NH2 (lactam 2-7; SMILES CC(=O)N[C@@H](CCCNC(=N)N)C(=O)N[C@H]1CCC(=O)NCCC[C@@H](C(N)=O)NC(=O)[C@H](Cc2c[nH]c3ccccc23)NC(=O)[C@H](CCCNC(=N)N)NC(=O)[C@@H](Cc2ccccc2Cl)NC(=O)[C@H](CO)NC1=O, also called No. 31) [Ac-Arg-cyclo(Glu-Ser-D-Phe(2-Cl)-Arg-Trp-Orn)-NH2] | 7 nM | 0.313 nM | 33% | 98% | 8 nM | 300 nM
4 | Ac-REP[dPhe(4-F)]RW[Orn]-NH2 (lactam 2-7; also: acetate salt, acetate salt form; also called Ex 67) [Ac-Arg-cyclo(Glu-Pro-D-Phe(4-F)-Arg-Trp-Orn)-NH2] | 1 nM | 0.14 nM | 38% | 99% | 5 nM | 130 nM
5 | Ac-REP[dPhe(4-F)]RW[Orn]-OH (lactam 2-7; SMILES CC(=O)N[C@@H](CCCNC(=N)N)C(=O)N[C@H]1CCC(=O)NCCC[C@@H](C(=O)O)NC(=O)[C@H](Cc2c[nH]c3ccccc23)NC(=O)[C@H](CCCNC(=N)N)NC(=O)[C@@H](Cc2ccc(F)cc2)NC(=O)[C@@H]2CCCN2C1=O) [Ac-Arg-cyclo(Glu-Pro-D-Phe(4-F)-Arg-Trp-Orn)-OH] | 18 nM | 0.725 nM | 30% | 97% | 30 nM | 730 nM
6 | Ac-RED[dPhe(4-CN)]RW[Orn]-OH (lactam 2-7; SMILES CC(=O)N[C@@H](CCCNC(=N)N)C(=O)N[C@H]1CCC(=O)NCCC[C@@H](C(=O)O)NC(=O)[C@H](Cc2c[nH]c3ccccc23)NC(=O)[C@H](CCCNC(=N)N)NC(=O)[C@@H](Cc2ccc(C#N)cc2)NC(=O)[C@H](CC(=O)O)NC1=O, also called No. 107) [Ac-Arg-cyclo(Glu-Asp-D-Phe(4-CN)-Arg-Trp-Orn)-OH] | – | – | 4% | 64% | 6460 nM | 10000 nM
7 | Ac-REN[dPhe(4-CN)]RW[Orn]-NH2 (lactam 2-7; also: acetate salt, acetate salt form; also called Ex 43) [Ac-Arg-cyclo(Glu-Asn-D-Phe(4-CN)-Arg-Trp-Orn)-NH2] | 1 nM | 0.177 nM | 43% | 100% | 5 nM | 870 nM
8 | Ac-REP[dPhe(4-CN)]RW[Orn]-NH2 (lactam 2-7; SMILES CC(=O)N[C@@H](CCCNC(=N)N)C(=O)N[C@H]1CCC(=O)NCCC[C@@H](C(N)=O)NC(=O)[C@H](Cc2c[nH]c3ccccc23)NC(=O)[C@H](CCCNC(=N)N)NC(=O)[C@@H](Cc2ccc(C#N)cc2)NC(=O)[C@@H]2CCCN2C1=O, also called No. 39) [Ac-Arg-cyclo(Glu-Pro-D-Phe(4-CN)-Arg-Trp-Orn)-NH2] | – | 1 nM | 4% | 79% | 4 nM | 1550 nM
9 | Ac-REA[dPhe(4-CN)]RW[Orn]-NH2 (lactam 2-7; SMILES CC(=O)N[C@@H](CCCNC(=N)N)C(=O)N[C@H]1CCC(=O)NCCC[C@@H](C(N)=O)NC(=O)[C@H](Cc2c[nH]c3ccccc23)NC(=O)[C@H](CCCNC(=N)N)NC(=O)[C@@H](Cc2ccc(C#N)cc2)NC(=O)[C@H](C)NC1=O, also called No. 41) [Ac-Arg-cyclo(Glu-Ala-D-Phe(4-CN)-Arg-Trp-Orn)-NH2] | – | 0.8 nM | 5% | 84% | 3 nM | 4300 nM
10 | Ac-REE[dPhe(4-CN)]RW[Orn]-NH2 (lactam 2-7; SMILES CC(=O)N[C@@H](CCCNC(=N)N)C(=O)N[C@H]1CCC(=O)NCCC[C@@H](C(N)=O)NC(=O)[C@H](Cc2c[nH]c3ccccc23)NC(=O)[C@H](CCCNC(=N)N)NC(=O)[C@@H](Cc2ccc(C#N)cc2)NC(=O)[C@H](CCC(=O)O)NC1=O) [Ac-Arg-cyclo(Glu-Glu-D-Phe(4-CN)-Arg-Trp-Orn)-NH2] | – | 9 nM | 3% | 59% | 128 nM | 10000 nM
11 | Ac-RES[dPhe(2-F)]RW[Orn]-NH2 (lactam 2-7, also called No. 58) [Ac-Arg-cyclo(Glu-Ser-D-Phe(2-F)-Arg-Trp-Orn)-NH2] | 5 nM | 0.25 nM | 67% | 100% | – | 138 nM
12 | Ac-REP[dPhe(2-F)]RW[Orn]-NH2 (lactam 2-7; SMILES CC(=O)N[C@@H](CCCNC(=N)N)C(=O)N[C@H]1CCC(=O)NCCC[C@@H](C(N)=O)NC(=O)[C@H](Cc2c[nH]c3ccccc23)NC(=O)[C@H](CCCNC(=N)N)NC(=O)[C@@H](Cc2ccccc2F)NC(=O)[C@@H]2CCCN2C1=O, also called No. 66) [Ac-Arg-cyclo(Glu-Pro-D-Phe(2-F)-Arg-Trp-Orn)-NH2] | 5 nM | 0.265 nM | 32% | 88% | 6 nM | 95 nM
13 | Ac-RED[dPhe(4-CN)]RW[Orn]-NH2 (lactam 2-7; SMILES CC(=O)N[C@@H](CCCNC(=N)N)C(=O)N[C@H]1CCC(=O)NCCC[C@@H](C(N)=O)NC(=O)[C@H](Cc2c[nH]c3ccccc23)NC(=O)[C@H](CCCNC(=N)N)NC(=O)[C@@H](Cc2ccc(C#N)cc2)NC(=O)[C@H](CC(=O)O)NC1=O, also called No. 106) [Ac-Arg-cyclo(Glu-Asp-D-Phe(4-CN)-Arg-Trp-Orn)-NH2] | – | 113 nM | 3% | 77% | 647 nM | 10000 nM
14 | Ac-REN[dPhe(4-F)]RW[Orn]-NH2 (lactam 2-7, also called No. 69) [Ac-Arg-cyclo(Glu-Asn-D-Phe(4-F)-Arg-Trp-Orn)-NH2] | 0.25 nM | 0.095 nM | 76% | 92% | 3 nM | 150 nM
15 | Ac-REQ[dPhe(2-Me)]RW[Orn]-NH2 (lactam 2-7, also called No. 110) [Ac-Arg-cyclo(Glu-Gln-D-Phe(2-Me)-Arg-Trp-Orn)-NH2] | 0.6 nM | 0.06 nM | 84% | 105% | – | 105 nM
16 | Ac-R[Orn]N[dPhe(2-CF3)]RWE-NH2 (lactam 2-7) [Ac-Arg-cyclo(Orn-Asn-D-Phe(2-CF3)-Arg-Trp-Glu)-NH2] | 1 nM | 0.18 nM | 50% | 112% | 5 nM | –
